Laboratory results published in paper PMC7317449, “On the mechanism of calcium‐dependent activation of NADPH oxidase 5 (NOX5)” (The Febs Journal, 2019).

Experiments:
[1] = biological target: the molecule itself; experiment: SEC-MALS; Superdex 200 10/300 GL, 100 μL samples, 50 mM Hepes pH 7.0, 25 mM NaCl, 0.5 TCEP, 1 mL/min; monomer to dimer
[2] = biological target: T1, human calmodulin (human, UniProt P0DP23 1-149); experiment: crystal structure; cocrystallised: 1078 µM calmodulin, 2800 µM peptide, 30 mM Tris/HCl pH 7.4, 2.5 mM CaCl2, 20 °C, sitting drop; 2.2 Å; conditions: both partners purified
T1 construct: calmodulin, human; gene a gift from Susan Shao, cloned in pET15b without tag; source: cloned in pET15b without tag, purified following established protocols

Row | binding result [2] | Binder | stoichiometry N [1]
1 | – | EF-domain of hNOX5 (residues 1–161, isoform β) (domain or fragment, human, NADPH oxidase 5 (NOX5), human, isoform β (v2), EF-domain, residues 1-161; stretch of three alanines from the Not I restriction site, added at the C terminus for cloning reasons (told in words); also called human EF-domain; hEF domain; source: E. coli BL21, purified (Strep column, TEV cleavage, Strep and Nickel columns, Superdex 75); not shown: Strep-tag, N-terminal, cleaved) MSAEEDARWLRWVTQQFKTIAGEDGEISLQEFKAALHVKESFFAERFFALFDSDRSGTITLQELQEALTLLIHGSPMDKLKFLFQVYDIDGSGSIDPDELRTVLQSCLRESAISLPDEKLDQLTLALFESADADGNGAITFEELRDELQRFPGVMENLTISAAA | 2
2 | binds | Ac-DWSKVFQKVAAEKKGKVQV-NH2 (methods: peptide 673-691; The limits are told in two ways (673-691 and 674-685); Val691 is named as a contact, which fits 673-691; also called DH peptide; hNOX5 peptide; source: synthetic peptide (Chinepeptide Co, Shanghai)) [peptide 673–691 of human DH-domain (putative calmodulin-binding region of hNOX5)] | –
